# Data as given in patent US20250084169A1 (published 2025).
# T1: recombinant human Fc gamma RIIa (CD32a) 131H (human, UniProt P12318 36-218)
# T1 sequence (looked up): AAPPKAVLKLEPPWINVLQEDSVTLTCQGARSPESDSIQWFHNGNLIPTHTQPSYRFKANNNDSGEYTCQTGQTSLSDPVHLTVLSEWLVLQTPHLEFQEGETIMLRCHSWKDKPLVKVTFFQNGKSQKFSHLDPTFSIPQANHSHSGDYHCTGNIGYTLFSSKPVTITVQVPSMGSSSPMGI
# T2: recombinant human Fc gamma RIIa (CD32a) 131R (human, UniProt P12318 36-218)
# T2 sequence (looked up): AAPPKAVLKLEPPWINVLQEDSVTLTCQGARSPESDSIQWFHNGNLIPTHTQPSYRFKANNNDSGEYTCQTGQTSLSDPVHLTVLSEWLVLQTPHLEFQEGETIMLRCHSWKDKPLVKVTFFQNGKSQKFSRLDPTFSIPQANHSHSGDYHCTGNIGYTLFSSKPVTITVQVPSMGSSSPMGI
# T3: recombinant human Fc gamma RIIb/c (CD32b/c) (human, UniProt P31994 46-217)
# T3 sequence (looked up): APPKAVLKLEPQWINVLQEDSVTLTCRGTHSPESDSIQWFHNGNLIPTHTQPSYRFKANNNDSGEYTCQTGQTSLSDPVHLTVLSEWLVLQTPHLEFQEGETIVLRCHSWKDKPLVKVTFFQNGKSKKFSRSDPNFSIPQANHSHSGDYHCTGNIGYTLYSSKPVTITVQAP
# T4: CD20 Lipoparticles (Homo sapiens (Human), UniProt P11836 1-297)
# T4 sequence: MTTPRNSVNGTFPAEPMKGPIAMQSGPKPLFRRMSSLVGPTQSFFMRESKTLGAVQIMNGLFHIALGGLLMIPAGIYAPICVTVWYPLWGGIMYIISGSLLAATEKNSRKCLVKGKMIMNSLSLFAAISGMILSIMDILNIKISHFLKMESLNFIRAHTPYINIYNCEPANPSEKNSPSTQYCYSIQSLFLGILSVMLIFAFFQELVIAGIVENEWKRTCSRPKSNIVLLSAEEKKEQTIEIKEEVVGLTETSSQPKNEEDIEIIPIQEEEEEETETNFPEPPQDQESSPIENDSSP
# What was measured:
# [1] = target: recombinant human Fc gamma RIIIa (CD16a) 158F (human, UniProt P08637 17-208)
# Chain of recombinant human Fc gamma RIIIa (CD16a) 158F (P08637 17-208 limits assumed): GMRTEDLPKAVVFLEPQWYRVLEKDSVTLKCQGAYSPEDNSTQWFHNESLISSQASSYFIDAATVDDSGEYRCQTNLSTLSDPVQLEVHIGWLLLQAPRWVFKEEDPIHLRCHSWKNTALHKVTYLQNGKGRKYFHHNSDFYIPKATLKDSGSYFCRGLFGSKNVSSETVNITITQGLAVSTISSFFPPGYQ
# [2] = target: recombinant human Fc gamma RIIIa (CD16a) 158V (human, UniProt P08637 17-208)
# Chain of recombinant human Fc gamma RIIIa (CD16a) 158V (P08637 17-208 F176V limits assumed): as the sequence (P08637 17-208 limits assumed) above, with F160V counted along it
# [3] = target: recombinant human Fc gamma RIIIb (CD16b) (human, UniProt O75015 17-200)
# Chain of recombinant human Fc gamma RIIIb (CD16b) (O75015 17-200 limits assumed): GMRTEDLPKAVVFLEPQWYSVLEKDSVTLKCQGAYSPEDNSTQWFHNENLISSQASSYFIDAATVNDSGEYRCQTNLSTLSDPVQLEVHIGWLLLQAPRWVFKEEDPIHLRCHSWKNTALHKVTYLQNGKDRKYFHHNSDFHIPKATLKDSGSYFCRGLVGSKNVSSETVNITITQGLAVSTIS
# [4] = target: T1, recombinant human Fc gamma RIIa (CD32a) …
# [5] = target: T2, recombinant human Fc gamma RIIa (CD32a) …
# [6] = target: T3, recombinant human Fc gamma RIIb/c …
# [7] = target: T4, CD20 Lipoparticles
# [8] = target: recombinant human Fc gamma RI (CD64) (human, UniProt P12314 16-288)
# Chain of recombinant human Fc gamma RI (CD64) (P12314 16-288 limits assumed): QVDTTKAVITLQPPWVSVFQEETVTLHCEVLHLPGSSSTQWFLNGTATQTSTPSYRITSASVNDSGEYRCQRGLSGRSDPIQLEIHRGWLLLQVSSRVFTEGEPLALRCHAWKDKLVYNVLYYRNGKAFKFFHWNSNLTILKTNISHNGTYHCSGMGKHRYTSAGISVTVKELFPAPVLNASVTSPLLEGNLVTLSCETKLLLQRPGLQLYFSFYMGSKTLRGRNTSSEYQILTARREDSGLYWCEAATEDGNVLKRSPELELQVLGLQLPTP
binder,measurement,setting,value
"Rc66SIDE (antibody, human IgG1, kappa) light: QIVLSQSPAILSASPGEKVTMTCRASSSVSYIHWFQQKPGSSPKPWIYATSNLASGVPVRFSGSGSGTSYSLTISRVEAEDAATYYCQQWTSNPPTFGGGTKLEIKRTVAAPSVFIFPPSDEQLKSGTASVVCLLNNFYPREAKVQWKVDNALQSGNSQESVTEQDSKDSTYSLSSTLTLSKADYEKHKVYACEVTHQGLSSPVTKSFNRGEC heavy: QVQLQQPGAELVKPGASVKMSCKASGYTFTSYNMHWVKQTPGRGLEWIGAIYPGNGDTSYNQKFKGKATLTADKSSSTAYMQLSSLTSEDSAVYYCARSTYYGGDWYFNVWGAGTTVTVSAASTKGPSVFPLAPSSKSTSGGTAALGCLVKDYFPEPVTVSWNSGALTSGVHTFPAVLQSSGLYSLSSVVTVPSSSLGTQTYICNVNHKPSNTKVDKKAEPKSCDKTHTCPPCPAPELLGGPDVFLFPPKPKDTLMISRTPEVTCVVVDVSHEDPEVKFNWYVDGVEVHNAKTKPREEQYNSTYRVVSVLTVLHQDWLNGKEYKCKVSNKALPAPEEKTISKAKGQPREPQVYVLPPSRDELTKNQVSLLCLVKGFYPSDIAVEWESNGQPENNYLTWPPVLDSDGSFFLYSKLTVDKSRWQQGNVFSCSVMHEALHNHYTQKSLSLSPGK CPPCPAPELLGGPDVFLFPPKPKDTLMISRTPEVTCVVVDVSHEDPEVKFNWYVDGVEVHNAKTKPREEQYNSTYRVVSVLTVLHQDWLNGKEYKCKVSNKALPAPEEKTISKAKGQPREPQVYVYPPSRDELTKNQVSLTCLVKGFYPSDIAVEWESNGQPENNYKTTPPVLDSDGSFALVSKLTVDKSRWQQGNVFSCSVMHEALHNHYTQKSLSLSPGK",Kd,[1],76.8 nM
same,Kd,[2],46.2 nM
same,Kd,[3],163 nM
same,Kd,[4],255 nM
same,Kd,[5],202 nM
same,Kd,[6],253 nM
same,Kd,[7],21.4 nM
"Rc66SIDE-P28-Rc66SIDE (antibody, human IgG1, kappa) light: QIVLSQSPAILSASPGEKVTMTCRASSSVSYIHWFQQKPGSSPKPWIYATSNLASGVPVRFSGSGSGTSYSLTISRVEAEDAATYYCQQWTSNPPTFGGGTKLEIKRTVAAPSVFIFPPSDEQLKSGTASVVCLLNNFYPREAKVQWKVDNALQSGNSQESVTEQDSKDSTYSLSSTLTLSKADYEKHKVYACEVTHQGLSSPVTKSFNRGEC heavy: QVQLQQPGAELVKPGASVKMSCKASGYTFTSYNMHWVKQTPGRGLEWIGAIYPGNGDTSYNQKFKGKATLTADKSSSTAYMQLSSLTSEDSAVYYCARSTYYGGDWYFNVWGAGTTVTVSAASTKGPSVFPLAPSSKSTSGGTAALGCLVKDYFPEPVTVSWNSGALTSGVHTFPAVLQSSGLYSLSSVVTVPSSSLGTQTYICNVNHKPSNTKVDKKAEPKSCDKTHTCPPCPAPELLGGPDVFLFPPKPKDTLMISRTPEVTCVVVDVSHEDPEVKFNWYVDGVEVHNAKTKPREEQYNSTYRVVSVLTVLHQDWLNGKEYKCKVSNKALPAPEEKTISKAKGQPREPQVYVLPPSRDELTKNQVSLLCLVKGFYPSDIAVEWESNGQPENNYLTWPPVLDSDGSFFLYSKLTVDKSRWQQGNVFSCSVMHEALHNHYTQKSLSLSPGK CPPCPAPELLGGPDVFLFPPKPKDTLMISRTPEVTCVVVDVSHEDPEVKFNWYVDGVEVHNAKTKPREEQYNSTYRVVSVLTVLHQDWLNGKEYKCKVSNKALPAPEEKTISKAKGQPREPQVYVYPPSRDELTKNQVSLTCLVKGFYPSDIAVEWESNGQPENNYKTTPPVLDSDGSFALVSKLTVDKSRWQQGNVFSCSVMHEALHNHYTQKSLSLSPGK",Kd,[1],6.62 nM
same,Kd,[2],4.98 nM
same,Kd,[3],5.64 nM
same,Kd,[4],5.42 nM
same,Kd,[5],8.11 nM
same,Kd,[6],7.28 nM
same,Kd,[8],1.14 nM
same,Kd,[7],< 0.001 nM
"Rc66SIDE-P16-Rc66SIDE (antibody, human IgG1, kappa) light: QIVLSQSPAILSASPGEKVTMTCRASSSVSYIHWFQQKPGSSPKPWIYATSNLASGVPVRFSGSGSGTSYSLTISRVEAEDAATYYCQQWTSNPPTFGGGTKLEIKRTVAAPSVFIFPPSDEQLKSGTASVVCLLNNFYPREAKVQWKVDNALQSGNSQESVTEQDSKDSTYSLSSTLTLSKADYEKHKVYACEVTHQGLSSPVTKSFNRGEC heavy: QVQLQQPGAELVKPGASVKMSCKASGYTFTSYNMHWVKQTPGRGLEWIGAIYPGNGDTSYNQKFKGKATLTADKSSSTAYMQLSSLTSEDSAVYYCARSTYYGGDWYFNVWGAGTTVTVSAASTKGPSVFPLAPSSKSTSGGTAALGCLVKDYFPEPVTVSWNSGALTSGVHTFPAVLQSSGLYSLSSVVTVPSSSLGTQTYICNVNHKPSNTKVDKKAEPKSCDKTHTCPPCPAPELLGGPDVFLFPPKPKDTLMISRTPEVTCVVVDVSHEDPEVKFNWYVDGVEVHNAKTKPREEQYNSTYRVVSVLTVLHQDWLNGKEYKCKVSNKALPAPEEKTISKAKGQPREPQVYVLPPSRDELTKNQVSLLCLVKGFYPSDIAVEWESNGQPENNYLTWPPVLDSDGSFFLYSKLTVDKSRWQQGNVFSCSVMHEALHNHYTQKSLSLSPGK CPPCPAPELLGGPDVFLFPPKPKDTLMISRTPEVTCVVVDVSHEDPEVKFNWYVDGVEVHNAKTKPREEQYNSTYRVVSVLTVLHQDWLNGKEYKCKVSNKALPAPEEKTISKAKGQPREPQVYVYPPSRDELTKNQVSLTCLVKGFYPSDIAVEWESNGQPENNYKTTPPVLDSDGSFALVSKLTVDKSRWQQGNVFSCSVMHEALHNHYTQKSLSLSPGK",Kd,[1],2.71 nM
same,Kd,[2],0.257 nM
same,Kd,[3],< 0.001 nM
same,Kd,[4],0.808 nM
same,Kd,[5],1.83 nM
same,Kd,[6],0.556 nM
same,Kd,[8],< 0.001 nM
same,Kd,[7],< 0.001 nM
"Rc66SIDE-P4-Rc66SIDE (antibody, human IgG1, kappa) light: QIVLSQSPAILSASPGEKVTMTCRASSSVSYIHWFQQKPGSSPKPWIYATSNLASGVPVRFSGSGSGTSYSLTISRVEAEDAATYYCQQWTSNPPTFGGGTKLEIKRTVAAPSVFIFPPSDEQLKSGTASVVCLLNNFYPREAKVQWKVDNALQSGNSQESVTEQDSKDSTYSLSSTLTLSKADYEKHKVYACEVTHQGLSSPVTKSFNRGEC heavy: QVQLQQPGAELVKPGASVKMSCKASGYTFTSYNMHWVKQTPGRGLEWIGAIYPGNGDTSYNQKFKGKATLTADKSSSTAYMQLSSLTSEDSAVYYCARSTYYGGDWYFNVWGAGTTVTVSAASTKGPSVFPLAPSSKSTSGGTAALGCLVKDYFPEPVTVSWNSGALTSGVHTFPAVLQSSGLYSLSSVVTVPSSSLGTQTYICNVNHKPSNTKVDKKAEPKSCDKTHTCPPCPAPELLGGPDVFLFPPKPKDTLMISRTPEVTCVVVDVSHEDPEVKFNWYVDGVEVHNAKTKPREEQYNSTYRVVSVLTVLHQDWLNGKEYKCKVSNKALPAPEEKTISKAKGQPREPQVYVLPPSRDELTKNQVSLLCLVKGFYPSDIAVEWESNGQPENNYLTWPPVLDSDGSFFLYSKLTVDKSRWQQGNVFSCSVMHEALHNHYTQKSLSLSPGK CPPCPAPELLGGPDVFLFPPKPKDTLMISRTPEVTCVVVDVSHEDPEVKFNWYVDGVEVHNAKTKPREEQYNSTYRVVSVLTVLHQDWLNGKEYKCKVSNKALPAPEEKTISKAKGQPREPQVYVYPPSRDELTKNQVSLTCLVKGFYPSDIAVEWESNGQPENNYKTTPPVLDSDGSFALVSKLTVDKSRWQQGNVFSCSVMHEALHNHYTQKSLSLSPGK",Kd,[1],3.87 nM
same,Kd,[2],1.14 nM
same,Kd,[3],1.05 nM
same,Kd,[4],2.54 nM
same,Kd,[5],4.93 nM
same,Kd,[6],3.17 nM
same,Kd,[8],< 0.001 nM
same,Kd,[7],< 0.001 nM
